Reference: patent US8445431

System: T1, [KGHK-Cu]+ copper(II) complex of KGHK
T1 sequence: KGHK

## recombinant isoform of human Angiotensin Converting Enzyme (rhACE) corresponding to the ectodomain somatic ACE
  catalytic rate constant kobs for enzyme deactivation under oxidative conditions (ascorbate, dioxygen): kobs˜2.86×10^-2 min^-1 for enzyme deactivation
